Laboratory results as given in PMC12856669 (2026).

Columns and labels:
[1] = target: NpF2164g6 (1038–1206), holo-protein, not biotinylated
[2] = target: T1, NpF2164g6 (1038–1206), holo-protein, not biotinylated (phycocyanobilin (PCB) chromophore bound); assay: dark state (Pr), thermal reversion
T1 chain: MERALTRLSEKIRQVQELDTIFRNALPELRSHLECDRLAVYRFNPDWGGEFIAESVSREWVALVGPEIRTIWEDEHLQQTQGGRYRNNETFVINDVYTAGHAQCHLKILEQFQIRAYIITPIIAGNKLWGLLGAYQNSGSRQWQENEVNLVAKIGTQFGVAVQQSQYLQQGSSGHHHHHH

[3] = target: T1, NpF2164g6 (1038–1206), holo-protein, …; assay: Pr-state (dark), from thermal reversion rate
[4] = target: Biotinylated NpF2164g6 (1038–1206), Avi-tagged holo-protein; assay: ELISA; purified biotinylated NpF2164g6 immobilised, purified FLAG-tagged binders, dark-adapted (Pr state)
[5] = target: Biotinylated NpF2164g6 (1038–1206), Avi-tagged holo-protein; assay: ELISA; purified biotinylated NpF2164g6 immobilised, purified FLAG-tagged binders, red-light conditions (Pg state)
[6] = target: NpF2164g6 (1038–1206), holo-protein, not biotinylated; assay: other fluorescence titration; Pr (dark) state fluorescence of NpF2164g6 against binder concentration, 1:1 binding model, gives Kd,D; 25 °C, PBS pH 7.2
[7] = target: NpF2164g6 (1038–1206), holo-protein, not biotinylated; assay: thermal reversion kinetics (UV-vis); observed thermal reversion rate of NpF2164g6 against binder concentration, gives Kd,L of the light (Pg) state; 25 °C, PBS pH 7.2
[8] = target: T2, NpF2164g6 (1052–1206), N-terminal truncation (phycocyanobilin (PCB) chromophore linked to Cys90 (construct numbering); 15N label for NMR); assay: dark state (Pr), thermal reversion
T2 chain: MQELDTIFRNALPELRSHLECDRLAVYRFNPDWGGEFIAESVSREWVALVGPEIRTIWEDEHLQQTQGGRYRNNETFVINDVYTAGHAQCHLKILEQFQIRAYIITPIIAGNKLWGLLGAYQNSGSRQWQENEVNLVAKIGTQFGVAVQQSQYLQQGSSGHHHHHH

[9] = target: T2, NpF2164g6 (1052–1206), N-terminal …; assay: light state (Pg), thermal reversion

Sequence of Biotinylated NpF2164g6 (1038–1206), Avi-tagged holo-protein (main, as listed by the source): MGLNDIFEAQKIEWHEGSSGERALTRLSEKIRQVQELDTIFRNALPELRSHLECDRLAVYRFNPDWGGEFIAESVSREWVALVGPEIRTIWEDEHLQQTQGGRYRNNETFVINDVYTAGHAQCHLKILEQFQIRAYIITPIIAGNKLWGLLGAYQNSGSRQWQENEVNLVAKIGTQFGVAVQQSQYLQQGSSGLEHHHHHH

B1: BNp-Red-1.2 (designed binder)
chain: MKLATIDQWLLKNAKEDAIAELKKAGITADAYFNWINNAWDVDYVNYRKNKILKAHAGSSGLEHHHHHH
Work on B1 yielded an SEAP reporter activity in stably transfected CHO-K1 cells (NpF2164g6-FUS-VP16-NLS and E-BNp-Red-1.2-NLS), dark against 660 nm illumination for 24 h, bulk cell culture [1] of 24 fold, an SEAP reporter activity in stably transfected CHO-K1 cells (NpF2164g6-FUS-VP16-NLS and E-BNp-Red-1.2-NLS), dark against 660 nm illumination for 24 h, individual clones [1] of over 30 fold and a Kd [2] of 3.7 µM. The Kd [3] was 3.7 µM, the Kd [4] was 600 nM and the Kd [5] was over 100 µM. For the same binder, the Kd [6] was 3 µM and the Kd [7] was over 30 µM.

B2: BNp-Red-1.0 (binder of NpF2164g6-Red state) (designed binder)
chain: MKLATIDQWLLKNAKEDAIAELKKAGITSDAYFNLINDAFDVDYVNYRKNKILKAHAGSSGLEHHHHHH
B2 was tested, and the Kd [8] was 7 µM, the Kd [2] was 7.9 µM and the Kd [9] was over 180 µM. For the same binder, the Kd [3] was 7.9 µM, the Kd [6] was 7 µM and the Kd [7] was over 200 µM.
